Data reported in publication PMC10861912, “Viral afterlife: SARS-CoV-2 as a reservoir of immunomimetic peptides that reassemble into proinflammatory supramolecular complexes” (Proceedings of the National Academy of Sciences of the …, 2024).

Experiment: Linear charge density of the peptide
Type: physicochemical

## LL-37: highly cationic human cathelicidin, host antimicrobial peptide
  linear charge density: ~ +1.1 e/nm
